Ends that are not written are not given here.
Biological target: T1, Bone Morphogenic Protein 2 (BMP-2) (UniProt P12643 283-396)
T1 construct: Bought from Medtronic; In the phage ELISAs it was biotinylated with NHS-biotin (about one biotin per molecule) and held on streptavidin plates; In the peptide assays it was unlabelled
Assay: estimated affinity from solution-phase binding of biotinylated peptide and BMP-2, capture on streptavidin plate, anti-BMP antibody detection

T1 sequence (P12643 283-396 limits assumed): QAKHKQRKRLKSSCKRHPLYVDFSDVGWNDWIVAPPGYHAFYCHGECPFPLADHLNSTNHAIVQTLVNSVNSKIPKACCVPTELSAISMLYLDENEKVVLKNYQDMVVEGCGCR

Row | Kd | Binder
1 | 10 nM | SSFEPLRFPLKGVPVSR (not fully specified (residues 1, 2, 16, 17, C-terminus); also: C-terminal Lys(ε-biotin), linker before it not given here, Synthetic form of the peptide of clone AP02-60; not shown: C-terminal biotinylated lysine; any linker before it is not spelled out for this peptide) [AFF-2009]
2 | 9 nM | SSSVDLYFPLKGDVVSR (not fully specified (residues 1, 2, 16, 17, C-terminus); also: C-terminal Lys(ε-biotin), linker before it not given here, Synthetic form of the peptide of clone AP02-59; not shown: C-terminal biotinylated lysine; any linker before it is not spelled out for this peptide) [AFF-2012]

From patent US20060051395A1 (AFFINERGY, published 2006)
